Ki data for six molecules are collected here from patent publication US20210139548A1 (published 2021).

*1 amine or outer side, *2 acyl side, *3 side chain or, on linkers, in order; H or OH if unused. Side-chain parts run from the residue outwards. The star is where a group is joined. C18 diacid = O=C(O)CCCCCCCCCCCCCCCCC(=O)*; γGlu = O=C(O)[C@H](CCC(=O)[*:2])N[*:1]; Isovaleryl = CC(C)CC(=O)*; AEEA = NCCOCCOCC(=O)O

T1: human neuropeptide Y2 receptor (human, UniProt P49146 1-381)
T1 construct: whole, on cells; also called hNPY2 receptor; hNPY2-R
T1 sequence (looked up): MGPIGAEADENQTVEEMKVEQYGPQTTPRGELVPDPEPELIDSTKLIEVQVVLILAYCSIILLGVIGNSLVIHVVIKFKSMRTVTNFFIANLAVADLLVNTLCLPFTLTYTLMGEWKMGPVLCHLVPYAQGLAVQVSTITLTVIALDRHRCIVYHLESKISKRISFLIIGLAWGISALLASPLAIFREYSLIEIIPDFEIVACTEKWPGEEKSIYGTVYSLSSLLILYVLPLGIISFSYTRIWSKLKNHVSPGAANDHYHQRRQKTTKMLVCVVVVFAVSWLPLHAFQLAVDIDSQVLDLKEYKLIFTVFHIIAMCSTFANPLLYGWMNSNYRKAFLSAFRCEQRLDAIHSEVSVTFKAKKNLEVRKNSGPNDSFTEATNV

B1: Compound 77 (peptide)
peptide: Isovaleryl-APEK([AEEA-AEEA-γGlu-C18 diacid])PEEDASEEELQRYYVELRHYYNWLTRQRY-NH2
SMILES: CC(C)CC(=O)N[C@@H](C)C(=O)N1CCC[C@H]1C(=O)N[C@@H](CCC(=O)O)C(=O)N[C@@H](CCCCNC(=O)COCCOCCNC(=O)COCCOCCNC(=O)CC[C@H](NC(=O)CCCCCCCCCCCCCCCCC(=O)O)C(=O)O)C(=O)N1CCC[C@H]1C(=O)N[C@@H](CCC(=O)O)C(=O)N[C@@H](CCC(=O)O)C(=O)N[C@@H](CC(=O)O)C(=O)N[C@@H](C)C(=O)N[C@@H](CO)C(=O)N[C@@H](CCC(=O)O)C(=O)N[C@@H](CCC(=O)O)C(=O)N[C@@H](CCC(=O)O)C(=O)N[C@@H](CC(C)C)C(=O)N[C@@H](CCC(N)=O)C(=O)N[C@@H](CCCNC(=N)N)C(=O)N[C@@H](Cc1ccc(O)cc1)C(=O)N[C@@H](Cc1ccc(O)cc1)C(=O)N[C@H](C(=O)N[C@@H](CCC(=O)O)C(=O)N[C@@H](CC(C)C)C(=O)N[C@@H](CCCNC(=N)N)C(=O)N[C@@H](Cc1c[nH]cn1)C(=O)N[C@@H](Cc1ccc(O)cc1)C(=O)N[C@@H](Cc1ccc(O)cc1)C(=O)N[C@@H](CC(N)=O)C(=O)N[C@@H](Cc1c[nH]c2ccccc12)C(=O)N[C@@H](CC(C)C)C(=O)N[C@H](C(=O)N[C@@H](CCCNC(=N)N)C(=O)N[C@@H](CCC(N)=O)C(=O)N[C@@H](CCCNC(=N)N)C(=O)N[C@@H](Cc1ccc(O)cc1)C(N)=O)[C@@H](C)O)C(C)C
B2: Compound 87 (peptide)
peptide: Isovaleryl-APEK([AEEA-AEEA-γGlu-C18 diacid])PEEDSSPAELQRYYVSLRHYYNWLTRQRY-NH2
SMILES: CC(C)CC(=O)N[C@@H](C)C(=O)N1CCC[C@H]1C(=O)N[C@@H](CCC(=O)O)C(=O)N[C@@H](CCCCNC(=O)COCCOCCNC(=O)COCCOCCNC(=O)CC[C@H](NC(=O)CCCCCCCCCCCCCCCCC(=O)O)C(=O)O)C(=O)N1CCC[C@H]1C(=O)N[C@@H](CCC(=O)O)C(=O)N[C@@H](CCC(=O)O)C(=O)N[C@@H](CC(=O)O)C(=O)N[C@@H](CO)C(=O)N[C@@H](CO)C(=O)N1CCC[C@H]1C(=O)N[C@@H](C)C(=O)N[C@@H](CCC(=O)O)C(=O)N[C@@H](CC(C)C)C(=O)N[C@@H](CCC(N)=O)C(=O)N[C@@H](CCCNC(=N)N)C(=O)N[C@@H](Cc1ccc(O)cc1)C(=O)N[C@@H](Cc1ccc(O)cc1)C(=O)N[C@H](C(=O)N[C@@H](CO)C(=O)N[C@@H](CC(C)C)C(=O)N[C@@H](CCCNC(=N)N)C(=O)N[C@@H](Cc1c[nH]cn1)C(=O)N[C@@H](Cc1ccc(O)cc1)C(=O)N[C@@H](Cc1ccc(O)cc1)C(=O)N[C@@H](CC(N)=O)C(=O)N[C@@H](Cc1c[nH]c2ccccc12)C(=O)N[C@@H](CC(C)C)C(=O)N[C@H](C(=O)N[C@@H](CCCNC(=N)N)C(=O)N[C@@H](CCC(N)=O)C(=O)N[C@@H](CCCNC(=N)N)C(=O)N[C@@H](Cc1ccc(O)cc1)C(N)=O)[C@@H](C)O)C(C)C
B3: Compound 79 (peptide)
peptide: Isovaleryl-APEK([AEEA-AEEA-γGlu-C18 diacid])PEEEASEEELQRYYVSLRHYYNWLTRQRY-NH2
SMILES: CC(C)CC(=O)N[C@@H](C)C(=O)N1CCC[C@H]1C(=O)N[C@@H](CCC(=O)O)C(=O)N[C@@H](CCCCNC(=O)COCCOCCNC(=O)COCCOCCNC(=O)CC[C@H](NC(=O)CCCCCCCCCCCCCCCCC(=O)O)C(=O)O)C(=O)N1CCC[C@H]1C(=O)N[C@@H](CCC(=O)O)C(=O)N[C@@H](CCC(=O)O)C(=O)N[C@@H](CCC(=O)O)C(=O)N[C@@H](C)C(=O)N[C@@H](CO)C(=O)N[C@@H](CCC(=O)O)C(=O)N[C@@H](CCC(=O)O)C(=O)N[C@@H](CCC(=O)O)C(=O)N[C@@H](CC(C)C)C(=O)N[C@@H](CCC(N)=O)C(=O)N[C@@H](CCCNC(=N)N)C(=O)N[C@@H](Cc1ccc(O)cc1)C(=O)N[C@@H](Cc1ccc(O)cc1)C(=O)N[C@H](C(=O)N[C@@H](CO)C(=O)N[C@@H](CC(C)C)C(=O)N[C@@H](CCCNC(=N)N)C(=O)N[C@@H](Cc1c[nH]cn1)C(=O)N[C@@H](Cc1ccc(O)cc1)C(=O)N[C@@H](Cc1ccc(O)cc1)C(=O)N[C@@H](CC(N)=O)C(=O)N[C@@H](Cc1c[nH]c2ccccc12)C(=O)N[C@@H](CC(C)C)C(=O)N[C@H](C(=O)N[C@@H](CCCNC(=N)N)C(=O)N[C@@H](CCC(N)=O)C(=O)N[C@@H](CCCNC(=N)N)C(=O)N[C@@H](Cc1ccc(O)cc1)C(N)=O)[C@@H](C)O)C(C)C
B4: Compound 80 (peptide)
peptide: Isovaleryl-APEK([AEEA-AEEA-γGlu-C18 diacid])PEEEASPEETQRYYVSLRHYYNWLTRQRY-NH2
SMILES: CC(C)CC(=O)N[C@@H](C)C(=O)N1CCC[C@H]1C(=O)N[C@@H](CCC(=O)O)C(=O)N[C@@H](CCCCNC(=O)COCCOCCNC(=O)COCCOCCNC(=O)CC[C@H](NC(=O)CCCCCCCCCCCCCCCCC(=O)O)C(=O)O)C(=O)N1CCC[C@H]1C(=O)N[C@@H](CCC(=O)O)C(=O)N[C@@H](CCC(=O)O)C(=O)N[C@@H](CCC(=O)O)C(=O)N[C@@H](C)C(=O)N[C@@H](CO)C(=O)N1CCC[C@H]1C(=O)N[C@@H](CCC(=O)O)C(=O)N[C@@H](CCC(=O)O)C(=O)N[C@H](C(=O)N[C@@H](CCC(N)=O)C(=O)N[C@@H](CCCNC(=N)N)C(=O)N[C@@H](Cc1ccc(O)cc1)C(=O)N[C@@H](Cc1ccc(O)cc1)C(=O)N[C@H](C(=O)N[C@@H](CO)C(=O)N[C@@H](CC(C)C)C(=O)N[C@@H](CCCNC(=N)N)C(=O)N[C@@H](Cc1c[nH]cn1)C(=O)N[C@@H](Cc1ccc(O)cc1)C(=O)N[C@@H](Cc1ccc(O)cc1)C(=O)N[C@@H](CC(N)=O)C(=O)N[C@@H](Cc1c[nH]c2ccccc12)C(=O)N[C@@H](CC(C)C)C(=O)N[C@H](C(=O)N[C@@H](CCCNC(=N)N)C(=O)N[C@@H](CCC(N)=O)C(=O)N[C@@H](CCCNC(=N)N)C(=O)N[C@@H](Cc1ccc(O)cc1)C(N)=O)[C@@H](C)O)C(C)C)[C@@H](C)O
B5: Compound 86 (peptide)
peptide: Isovaleryl-APEK([AEEA-AEEA-γGlu-C18 diacid])PEADASPEELQRYEVSLRHYYNWLTRQRY-NH2
SMILES: CC(C)CC(=O)N[C@@H](C)C(=O)N1CCC[C@H]1C(=O)N[C@@H](CCC(=O)O)C(=O)N[C@@H](CCCCNC(=O)COCCOCCNC(=O)COCCOCCNC(=O)CC[C@H](NC(=O)CCCCCCCCCCCCCCCCC(=O)O)C(=O)O)C(=O)N1CCC[C@H]1C(=O)N[C@@H](CCC(=O)O)C(=O)N[C@@H](C)C(=O)N[C@@H](CC(=O)O)C(=O)N[C@@H](C)C(=O)N[C@@H](CO)C(=O)N1CCC[C@H]1C(=O)N[C@@H](CCC(=O)O)C(=O)N[C@@H](CCC(=O)O)C(=O)N[C@@H](CC(C)C)C(=O)N[C@@H](CCC(N)=O)C(=O)N[C@@H](CCCNC(=N)N)C(=O)N[C@@H](Cc1ccc(O)cc1)C(=O)N[C@@H](CCC(=O)O)C(=O)N[C@H](C(=O)N[C@@H](CO)C(=O)N[C@@H](CC(C)C)C(=O)N[C@@H](CCCNC(=N)N)C(=O)N[C@@H](Cc1c[nH]cn1)C(=O)N[C@@H](Cc1ccc(O)cc1)C(=O)N[C@@H](Cc1ccc(O)cc1)C(=O)N[C@@H](CC(N)=O)C(=O)N[C@@H](Cc1c[nH]c2ccccc12)C(=O)N[C@@H](CC(C)C)C(=O)N[C@H](C(=O)N[C@@H](CCCNC(=N)N)C(=O)N[C@@H](CCC(N)=O)C(=O)N[C@@H](CCCNC(=N)N)C(=O)N[C@@H](Cc1ccc(O)cc1)C(N)=O)[C@@H](C)O)C(C)C
B6: Compound 85 (peptide)
peptide: Isovaleryl-APEK([AEEA-AEEA-γGlu-C18 diacid])PEEDASPEELQRYAVSLRHYYNWLTRQRY-NH2
SMILES: CC(C)CC(=O)N[C@@H](C)C(=O)N1CCC[C@H]1C(=O)N[C@@H](CCC(=O)O)C(=O)N[C@@H](CCCCNC(=O)COCCOCCNC(=O)COCCOCCNC(=O)CC[C@H](NC(=O)CCCCCCCCCCCCCCCCC(=O)O)C(=O)O)C(=O)N1CCC[C@H]1C(=O)N[C@@H](CCC(=O)O)C(=O)N[C@@H](CCC(=O)O)C(=O)N[C@@H](CC(=O)O)C(=O)N[C@@H](C)C(=O)N[C@@H](CO)C(=O)N1CCC[C@H]1C(=O)N[C@@H](CCC(=O)O)C(=O)N[C@@H](CCC(=O)O)C(=O)N[C@@H](CC(C)C)C(=O)N[C@@H](CCC(N)=O)C(=O)N[C@@H](CCCNC(=N)N)C(=O)N[C@@H](Cc1ccc(O)cc1)C(=O)N[C@@H](C)C(=O)N[C@H](C(=O)N[C@@H](CO)C(=O)N[C@@H](CC(C)C)C(=O)N[C@@H](CCCNC(=N)N)C(=O)N[C@@H](Cc1c[nH]cn1)C(=O)N[C@@H](Cc1ccc(O)cc1)C(=O)N[C@@H](Cc1ccc(O)cc1)C(=O)N[C@@H](CC(N)=O)C(=O)N[C@@H](Cc1c[nH]c2ccccc12)C(=O)N[C@@H](CC(C)C)C(=O)N[C@H](C(=O)N[C@@H](CCCNC(=N)N)C(=O)N[C@@H](CCC(N)=O)C(=O)N[C@@H](CCCNC(=N)N)C(=O)N[C@@H](Cc1ccc(O)cc1)C(N)=O)[C@@H](C)O)C(C)C

The assay has as its target T1, human neuropeptide Y2 receptor. The assay is described as follows: radioligand competition (125I-PYY(1-36)), hNPY2R membranes. The procedure, abridged: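 Commercial human Y2 receptor membranes (0.5 μg protein/well) were incubated with peptide for 2 h at room temperature in 50 mM HEPES, 5 mM MgCl₂, 1 mM CaCl₂, pH 7.4, with 0.2% ovalbumin. Bound radioligand was separated on PEI-soaked GF/C filters and counted by scintillation, and IC₅₀ came from nonlinear sigmoidal regression.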
(Displacement assays read how much labelled ligand stays bound in the presence of the test substance.)
B1: the affinity corresponds to a Ki of 6.17 nM.
Next, B2: 1.97 nM; B3: 4.52 nM.
As to B4, the Ki (as a rule, a dissociation constant, usually derived from enzyme kinetics or from competition with a known ligand) worked out at 6.96 nM.
Next, B5: 1.19 nM; B6: 1.56 nM.
